The values below come from paper PMC12833063.

In the assay the target is anti-PD-L1×avβ3 dual function antibody (B1451). As to the kind of experiment: SPR; Biacore T200; B1451 captured at about 35 RU on anti-human IgG (Fc) immobilised on a CM5 chip; human αvβ3 injected, 2-fold dilutions 12.5-400 nM, association 120 s; regeneration 10 mM glycine-HCl pH 1.5; 1:1 binding model.

pKd: −log10 of the molar value.

The term pKd denotes the negative decadic logarithm of the Kd, by convention in mol/L.

Chain of human αvβ3 (P06756 31-1048): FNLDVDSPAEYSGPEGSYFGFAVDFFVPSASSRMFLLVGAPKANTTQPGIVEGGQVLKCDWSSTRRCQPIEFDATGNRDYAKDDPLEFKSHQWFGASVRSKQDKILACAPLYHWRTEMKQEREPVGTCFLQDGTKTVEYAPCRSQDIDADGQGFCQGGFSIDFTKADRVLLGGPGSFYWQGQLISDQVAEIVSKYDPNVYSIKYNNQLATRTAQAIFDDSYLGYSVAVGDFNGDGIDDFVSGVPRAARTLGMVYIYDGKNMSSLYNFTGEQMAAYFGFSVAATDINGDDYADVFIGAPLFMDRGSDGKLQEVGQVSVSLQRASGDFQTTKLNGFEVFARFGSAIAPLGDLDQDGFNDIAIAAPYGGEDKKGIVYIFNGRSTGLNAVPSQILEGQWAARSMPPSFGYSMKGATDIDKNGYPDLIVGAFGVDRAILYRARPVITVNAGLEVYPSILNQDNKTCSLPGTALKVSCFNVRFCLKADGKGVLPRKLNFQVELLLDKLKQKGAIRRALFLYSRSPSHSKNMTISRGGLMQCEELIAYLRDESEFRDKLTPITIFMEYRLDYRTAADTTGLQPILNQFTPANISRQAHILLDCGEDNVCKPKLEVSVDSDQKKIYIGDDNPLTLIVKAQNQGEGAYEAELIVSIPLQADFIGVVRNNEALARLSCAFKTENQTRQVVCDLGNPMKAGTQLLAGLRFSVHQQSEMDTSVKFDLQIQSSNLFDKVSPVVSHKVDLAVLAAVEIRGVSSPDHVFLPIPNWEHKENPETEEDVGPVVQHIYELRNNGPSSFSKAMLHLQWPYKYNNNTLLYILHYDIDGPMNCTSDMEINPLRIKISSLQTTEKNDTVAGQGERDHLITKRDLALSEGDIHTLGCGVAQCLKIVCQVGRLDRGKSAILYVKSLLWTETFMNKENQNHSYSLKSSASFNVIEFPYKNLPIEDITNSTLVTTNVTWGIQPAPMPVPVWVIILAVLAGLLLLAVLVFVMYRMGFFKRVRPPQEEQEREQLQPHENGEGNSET
Chain of human αvβ3 (P05106 27-718): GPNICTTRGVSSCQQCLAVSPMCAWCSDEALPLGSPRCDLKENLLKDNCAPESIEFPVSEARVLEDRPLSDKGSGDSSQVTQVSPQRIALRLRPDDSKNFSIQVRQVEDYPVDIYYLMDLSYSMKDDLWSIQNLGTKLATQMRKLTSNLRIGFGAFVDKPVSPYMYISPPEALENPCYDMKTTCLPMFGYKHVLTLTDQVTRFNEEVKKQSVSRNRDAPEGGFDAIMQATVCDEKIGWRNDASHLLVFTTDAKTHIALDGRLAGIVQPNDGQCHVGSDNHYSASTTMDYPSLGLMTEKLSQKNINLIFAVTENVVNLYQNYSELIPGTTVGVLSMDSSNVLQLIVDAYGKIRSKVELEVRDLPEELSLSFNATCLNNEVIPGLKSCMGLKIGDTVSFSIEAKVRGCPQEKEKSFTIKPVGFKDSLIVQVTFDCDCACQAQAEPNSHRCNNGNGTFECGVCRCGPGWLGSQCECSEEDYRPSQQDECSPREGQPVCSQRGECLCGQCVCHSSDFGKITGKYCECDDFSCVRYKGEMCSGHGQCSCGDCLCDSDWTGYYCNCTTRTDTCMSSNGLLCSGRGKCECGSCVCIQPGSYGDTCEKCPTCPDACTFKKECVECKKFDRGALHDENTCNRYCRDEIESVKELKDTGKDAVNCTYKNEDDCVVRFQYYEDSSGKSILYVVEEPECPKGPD

Regarding “human αvβ3 (from UniProt P06756 31-1048; P05106 27-718) (complex)”, the negative-log Kd (pKd) is 4.81.
